Experiments:
homomeric Kv3.4 channels = molecular target: T1, homomeric Kv3.4 channels (Rattus norvegicus, UniProt Q63734); details: low micromolar concentrations; cited from earlier work
T1 sequence (Q63734 1-625): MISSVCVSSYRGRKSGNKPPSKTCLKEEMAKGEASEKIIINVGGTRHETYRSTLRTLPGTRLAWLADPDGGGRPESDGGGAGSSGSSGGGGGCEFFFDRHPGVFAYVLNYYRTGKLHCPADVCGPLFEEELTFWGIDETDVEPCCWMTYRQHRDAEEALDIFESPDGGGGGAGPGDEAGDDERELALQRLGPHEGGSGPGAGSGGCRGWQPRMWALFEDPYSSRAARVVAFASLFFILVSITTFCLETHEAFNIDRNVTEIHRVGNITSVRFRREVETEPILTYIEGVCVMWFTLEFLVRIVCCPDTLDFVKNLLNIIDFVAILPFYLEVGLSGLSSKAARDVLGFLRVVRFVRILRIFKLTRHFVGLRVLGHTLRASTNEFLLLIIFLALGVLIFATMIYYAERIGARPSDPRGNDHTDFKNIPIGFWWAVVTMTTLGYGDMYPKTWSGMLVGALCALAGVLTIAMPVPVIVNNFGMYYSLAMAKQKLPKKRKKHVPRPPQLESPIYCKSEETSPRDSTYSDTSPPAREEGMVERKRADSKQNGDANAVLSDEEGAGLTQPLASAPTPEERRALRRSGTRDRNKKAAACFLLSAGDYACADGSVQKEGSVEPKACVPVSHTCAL

Kv3.4 channel = molecular target: T2, Kv3.4 channel (Rattus norvegicus, UniProt Q63734); details: COS-transfected cells, reversible; read-out: IC50, inhibition of Kv3.4 current; cited from earlier work
T2 construct: host or cells: COS cells
T2 sequence (Q63734 1-625): T1 sequence (Q63734 1-625)

[1] = molecular target: T3, Kv3.4a/Kv3.1b heteromeric channels (Rattus norvegicus, UniProt P25122+Q63734); type: cell-based; details: HEK293 cells, n=4
T3 construct: expressed in transfected cells; host or cells: HEK293
T3 sequence (Q63734 1-625): T1 sequence (Q63734 1-625)
T3 sequence (P25122 1-585): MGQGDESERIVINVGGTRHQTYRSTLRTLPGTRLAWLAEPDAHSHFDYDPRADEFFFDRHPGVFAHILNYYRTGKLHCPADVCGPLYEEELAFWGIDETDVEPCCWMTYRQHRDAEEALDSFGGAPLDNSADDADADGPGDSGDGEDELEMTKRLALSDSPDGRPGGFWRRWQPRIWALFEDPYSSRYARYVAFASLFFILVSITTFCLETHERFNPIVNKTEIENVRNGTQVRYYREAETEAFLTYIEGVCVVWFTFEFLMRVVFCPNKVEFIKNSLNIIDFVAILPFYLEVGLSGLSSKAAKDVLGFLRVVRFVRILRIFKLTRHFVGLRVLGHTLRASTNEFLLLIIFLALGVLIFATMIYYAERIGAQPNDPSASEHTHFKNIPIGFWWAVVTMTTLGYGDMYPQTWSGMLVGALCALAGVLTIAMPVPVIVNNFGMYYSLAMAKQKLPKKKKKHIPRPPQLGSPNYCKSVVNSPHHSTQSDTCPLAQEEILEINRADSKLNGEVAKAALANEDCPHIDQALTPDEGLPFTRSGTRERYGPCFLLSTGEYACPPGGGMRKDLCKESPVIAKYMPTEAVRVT
Excerpt: Electrophysiology. Whole-cell recordings used standard techniques^27,28. The internal solution consisted of (in mM): 30-90 K2SO4, 0-60 N-methyl-D-glucamine, 2 MgCl2, 40 HEPES, 5 EGTA, 12 phosphocreatine, 2 Na2ATP, 0.2 Na3GTP, and 0.1 leupeptin, pH 7.2 with H2SO4 (osmolarity 260-270 mOsm/l). The external solution consisted of (in mM): 140 Na-isethionate, 2 KCl, 4 MgCl2, 10 HEPES, 12 glucose and 0.001 TTX, pH 7.35 with NaOH (osmolarity 295-305 mOsm/l). The internal solution for current clamp recordings consisted of (in mM) 110 potassium methylsulphate, 2 MgCl2, 40 HEPES, 5 EGTA, 12 phosphocreatine, 2 Na2ATP, 0.2 Na3GTP, and 0.1 leupeptin, pH 7.2 with H2SO4 (osmolarity 260-270 mOsm/l). In the case of current clamp recordings, TTX was omitted from external solution. For the recordings in the presence of Ca^+2 ions EGTA was omitted from internal solution and 4 mM of MgCl2 was substituted by 2 mM of CaCl2 and 2 mM of MgCl2. […] Recordings were obtained with Axon Instruments 200 patch-clamp amplifier and controlled and monitored with a PC running pClamp software (version 7.0) (Axon Instruments Inc., Union City, Calif.). […] After seal rupture, series resistance (2-10 MΩ) was compensated (75-90%) and periodically monitored. […]
Single cell RT-PCR (scRT-PCR). […] In the case of co-transfection with Kv3.4a and Kv3.1b cDNA, single cell RT-PCR was used to confirm the presence of both mRNAs in the recorded cell. […]

BDS-I (AAPCFCSGKPGRGDLWILRGTCPGGYGYTSNCYKWPNICCYPH)
block of homomeric Kv3.4 channels (homomeric Kv3.4 channels): blocks | IC50 (Kv3.4 channel): 0.047 µM | block of Kv3.4a/Kv3.1b heteromeric channels [1]: strong at the beginning of a depolarizing step and then waned with maintained depolarization

Source: patent publication US7629323B2, “Manipulation of neuronal ion channels” (Northwestern University, priority 2003, dated 2009)
